Among the data in publication PMC2877798 are stoichiometry N, inhibition of in vitro DNA methylation by M.EcoR124INT (EcoRI protection assay; 50 nM MTase, 50 nM ocr dimer incubated with the MTase before DNA, 37 °C, 10 mM MgCl2) and stoichiometry N (M per SNT (2:2 hetero-tetramer)) values, retold here.

Test [1] deals with SNT, residues 1–215 of the HsdS (specificity) subunit of EcoR124I (UniProt P10485). Put plainly: AUC; sedimentation velocity of SNT alone at 25 μM; 30,000 rpm, 10 °C, buffer A (10 mM Tris–HCl, pH 8.0, 100 mM NaCl, 1 mM Na2EDTA), 280 nm; c(s)/c(M) analysis with SEDFIT.
Test [2] deals with M.EcoR124INT methyltransferase (hetero-tetramer of two SNT and two M subunits) (UniProt P10485).
In test [3] the target is SNT, residues 1–215 of the HsdS (specificity) subunit of EcoR124I (UniProt P10485). Put plainly: AUC; sedimentation velocity of reconstituted M.EcoR124INT at 2.6 μM; 30,000 rpm, 10 °C, buffer A, 280 nm; c(s)/c(M) analysis with SEDFIT.
Test [4] shares this target. Put plainly: AUC; sedimentation equilibrium of reconstituted M.EcoR124INT at 2.5 to 8.8 μM; 6500 rpm and 8500 rpm, 276 nm, global fit to a single ideal species model.

What is called stoichiometry N is the number of molecules, sites or subunits per partner or assembly. “SNT, residues 1–215 of the HsdS (specificity) subunit of EcoR124I (from UniProt P10485 1-215) (domain or fragment)” displayed a stoichiometry N in test [1] of 2.

B1: ocr (“overcome classical restriction”) protein (natural protein)
chain: MAMSNMTYNNVFDHAYEMLKENIRYDDIRDTDDLHDAIHMAADNAVPHYYADIFSVMASEGIDLEFEDSGLMPDTKDVIRILQARIYEQLTIDLWEDAEDLLNEYLEEVEEYEEDEE
B1: the inhibition of in vitro DNA methylation by M.EcoR124INT (EcoRI protection assay; 50 nM MTase, 50 nM ocr dimer incubated with the MTase before DNA, 37 °C, 10 mM MgCl2) in test [2] was 50%.

B2: M subunit (HsdM) of EcoR124I (natural protein)
chain: MKMTSIQQRAELHRQIWQIANDVRGSVDGWDFKQYVLGALFYRFISENFSSYIEAGDDSICYAKLDDSVITDDIKDDAIKTKGYFIYPSQLFCNVAAKANTNDRLNADLNSIFVAIESSAYGYPSEADIKGLFADFDTTSNRLGNTVKDKNARLAAVLKGVEGLKLGDFNEHQIDLFGDAYEFLISNYAANAGKSGGEFFTPQHVSKLIAQLAMHGQTHVNKIYDPAAGSGSLLLQAKKQFDNHIIEEGFFGQEINHTTYNLARMNMFLHNINYDKFDIKLGNTLTEPHFRDEKPFDAIVSNPPYSVKWIGSDDPTLINDERFAPAGVLAPKSKADFAFVLHALNYLSAKGRAAIVCFPGIFYRGGAEQKIRQYLVDNNYVETVISLAPNLFFGTTIAVNILVLSKHKTDTNVQFIDASELFKKETNNNILTDAHIEQIMQVFASKEDVAHLAKSVAFETVVANDYNLSVSSYVEAKDNREIIDIAELNAELKTTVSKIDQLRKDIDAIVAEIEGCEVQK
Consider B2, for which the stoichiometry N (M per SNT (2:2 hetero-tetramer)) in test [3] and in test [4] was 1 throughout.
